Experiment [1] deals with T1, GST-Glmn (Glomulin) (UniProt Q92990 1-594).
T1 chain: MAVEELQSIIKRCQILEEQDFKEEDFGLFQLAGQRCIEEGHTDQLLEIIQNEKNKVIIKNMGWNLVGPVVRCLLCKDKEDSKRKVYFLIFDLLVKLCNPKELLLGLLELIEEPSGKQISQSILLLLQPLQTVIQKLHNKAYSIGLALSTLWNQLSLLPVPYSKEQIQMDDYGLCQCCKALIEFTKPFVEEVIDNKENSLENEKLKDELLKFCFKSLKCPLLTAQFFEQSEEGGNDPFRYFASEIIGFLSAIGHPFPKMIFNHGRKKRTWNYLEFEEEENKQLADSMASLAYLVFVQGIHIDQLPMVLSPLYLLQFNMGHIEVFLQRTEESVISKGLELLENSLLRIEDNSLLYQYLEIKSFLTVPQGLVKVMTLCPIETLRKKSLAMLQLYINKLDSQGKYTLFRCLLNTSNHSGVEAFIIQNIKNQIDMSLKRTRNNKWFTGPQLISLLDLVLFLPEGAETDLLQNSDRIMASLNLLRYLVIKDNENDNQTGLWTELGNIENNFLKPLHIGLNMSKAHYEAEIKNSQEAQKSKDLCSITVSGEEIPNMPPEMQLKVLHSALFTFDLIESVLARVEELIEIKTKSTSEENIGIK
Nature of the experiment: FRET.

Experiment [2] has as its target T1, GST-Glmn (Glomulin). As to the kind of experiment: FRET.
Experiment [3] deals with T2, GST-Glmn (Glomulin) (UniProt Q92990 1-594).
T2 construct: Glomulin (Glmn); GST is detected by the anti-GST-Tb cryptate antibody in the HTRF assays; also called GST-tagged Glmn; FAP48; source: E. coli BL21(DE3), purified (glutathione beads, SEC)
T2 sequence (looked up): T1 chain
Nature of the experiment: AlphaScreen or HTRF; competitive HTRF: unlabelled FKBP titrated against 30 nM FKBP51FK1-5-MF and 30 nM GST-Glmn with Anti GST-Tb cryptate; 20 mM HEPES, 5% glycerol, 20 mM NaCl, 10 mM DTT, pH 8.0; room temperature, 1 h. To be noted: both partners purified. In general terms: In Alpha technology, singlet oxygen from a donor bead excites a nearby acceptor bead.

Experiment [4] addresses T1, GST-Glmn (Glomulin). As to the kind of experiment: FRET.

Residue numbers refer to the chain shown, from its start. Names and notes keep the numbering of the source. Where two headings read alike, the source gives them in different places.

The text below walks through data of PMC6730887, “FKBP51 and FKBP12.6—Novel and tight interactors of Glomulin” (PLoS ONE, 2019).

What is called IC50 is the point on the concentration scale where inhibition reaches its midpoint. Read a low IC50 as higher potency.

B1: His-FKBP52FK1 (domain or fragment)
chain: GDRVFVHYTGWLLDGTKFDSSLDRKDKFSFDLGKGEVIKAWDIAIATMKVGEVCHITCKPEYAYGSAGSPPKIPPNATLVFEVELFEFK
For the molecule B1, the IC50 in experiment [1] was 362 nM.

B2: His-FKBP51FK1 (aa16-140) (domain or fragment)
chain: ATVAEQGEDITSKKDRGVLKIVKRVGNGEETPMIGDKVYVHYKGKLSNGKKFDSSHDRNEPFVFSLGKGQVIKAWDIGVATMKKGEICHLLCKPEYAYGSAGSLPKIPSNATLFFEIELLDFKGE
B2: the IC50 in experiment [1] stood at 372 nM; in experiment [2], 380 nM.

B3: His-FKBP52-Strep (full length) (natural protein, UniProt Q02790 1-459, looked up)
chain: MTAEEMKATESGAQSAPLPMEGVDISPKQDEGVLKVIKREGTGTEMPMIGDRVFVHYTGWLLDGTKFDSSLDRKDKFSFDLGKGEVIKAWDIAIATMKVGEVCHITCKPEYAYGSAGSPPKIPPNATLVFEVELFEFKGEDLTEEEDGGIIRRIQTRGEGYAKPNEGAIVEVALEGYYKDKLFDQRELRFEIGEGENLDLPYGLERAIQRMEKGEHSIVYLKPSYAFGSVGKEKFQIPPNAELKYELHLKSFEKAKESWEMNSEEKLEQSTIVKERGTVYFKEGKYKQALLQYKKIVSWLEYESSFSNEEAQKAQALRLASHLNLAMCHLKLQAFSAAIESCNKALELDSNNEKGLFRRGEAHLAVNDFELARADFQKVLQLYPNNKAAKTQLAVCQQRIRRQLAREKKLYANMFERLAEEENKAKAEASSGDHPTDTEMKEEQKSNTAGSQSQVETEA
notes: FKBP52, full length; in pProEx-HTA, used as previously described; also called FKBP52FL; full-length FKBP52; source: E. coli BL21(DE3), purified (Ni-NTA, SEC)
Regarding B3, in experiment [3], the “fold better competition than its FK1 domain” value was ~19 fold.

B4: His-FKBP51FK1 (FD67/68DV) (domain or fragment)
chain: MTTDEGAKNNEESPTATVAEQGEDITSKKDRGVLKIVKRVGNGEETPMIGDKVYVHYKGKLSNGKKDVSSHDRNEPFVFSLGKGQVIKAWDIGVATMKKGEICHLLCKPEYAYGSAGSLPKIPSNATLFFEIELLDFKGE
Take B4: the IC50 in experiment [4] is 15600 nM.

B5: His-FKBP51FK1 (F67V) (domain or fragment)
chain: B4 chain with D67V, V68D
In experiment [2], B5 returned an IC50 of 880 nM.

B6: His-FKBP51FK1 (1-140) (domain or fragment)
chain: B4 chain with D67F, V68D
Molecule B6 gave an IC50 in experiment [2] of 383 nM.

B7: His-FKBP51-Strep (full length) (natural protein, UniProt Q13451 1-457, looked up)
chain: MTTDEGAKNNEESPTATVAEQGEDITSKKDRGVLKIVKRVGNGEETPMIGDKVYVHYKGKLSNGKKFDSSHDRNEPFVFSLGKGQVIKAWDIGVATMKKGEICHLLCKPEYAYGSAGSLPKIPSNATLFFEIELLDFKGEDLFEDGGIIRRTKRKGEGYSNPNEGATVEIHLEGRCGGRMFDCRDVAFTVGEGEDHDIPIGIDKALEKMQREEQCILYLGPRYGFGEAGKPKFGIEPNAELIYEVTLKSFEKAKESWEMDTKEKLEQAAIVKEKGTVYFKGGKYMQAVIQYGKIVSWLEMEYGLSEKESKASESFLLAAFLNLAMCYLKLREYTKAVECCDKALGLDSANEKGLYRRGEAQLLMNEFESAKGDFEKVLEVNPQNKAARLQISMCQKKAKEHNERDRRIYANMFKKFAEQDAKEEANKAMGKKTSEGVTNEKGTDSQAMEEEKPEGHV
notes: FKBP51, full length; in pProEx-HTA, used as previously described; also called FKBP51FL; full-length FKBP51; source: E. coli BL21(DE3), purified (Ni-NTA, SEC)
Molecule B7 yielded an IC50 in experiment [1] of 96 nM. In addition, in experiment [3], the “fold difference in competition between full-length protein and the isolated FK506-binding domain” value was 4 fold.
